Reference: PMC7869511, “Computer-aided design of PVR mutants with enhanced binding affinity to TIGIT” (Cell Communication and Signaling : CCS, 2021)
Substitutions are numbered along the chain they refer to. Read-outs that look alike come from different tables or passages of the source.

Key:
PVR (Homo sapiens) [1] = biological target: PVR (Homo sapiens) (UniProt P15151); settings: cited from earlier work
nectin-2 (Homo sapiens) = nectin-2 (Homo sapiens) (UniProt Q92692); settings: cited from earlier work
nectin-2 (Homo sapiens), sequence (Q92692 32-360): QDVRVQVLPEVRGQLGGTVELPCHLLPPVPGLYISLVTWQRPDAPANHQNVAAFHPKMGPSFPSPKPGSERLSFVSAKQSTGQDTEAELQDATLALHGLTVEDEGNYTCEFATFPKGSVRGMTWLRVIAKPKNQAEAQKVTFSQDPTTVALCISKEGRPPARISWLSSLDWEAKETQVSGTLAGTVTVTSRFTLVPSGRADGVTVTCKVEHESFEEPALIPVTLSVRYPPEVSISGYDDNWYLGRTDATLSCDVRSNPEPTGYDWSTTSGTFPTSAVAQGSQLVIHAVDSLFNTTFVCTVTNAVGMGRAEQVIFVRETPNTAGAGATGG

PVR (Homo sapiens) [2] = biological target: PVR (Homo sapiens) (UniProt P15151); settings: cited from earlier work; remark: listed apart in the source
[3] = biological target: T1, wild-type PVR fused with EGFP, extracted membrane protein (human), P15151; assay: MST; extracted membrane protein of PVR or PVR mutants fused with EGFP (quantified by EGFP fluorescence) as the fluorescent partner; TIGIT-His serially diluted two-fold from 25 μM to 0.000153 μM; settings: remark: other sources report otherwise
T1 chain: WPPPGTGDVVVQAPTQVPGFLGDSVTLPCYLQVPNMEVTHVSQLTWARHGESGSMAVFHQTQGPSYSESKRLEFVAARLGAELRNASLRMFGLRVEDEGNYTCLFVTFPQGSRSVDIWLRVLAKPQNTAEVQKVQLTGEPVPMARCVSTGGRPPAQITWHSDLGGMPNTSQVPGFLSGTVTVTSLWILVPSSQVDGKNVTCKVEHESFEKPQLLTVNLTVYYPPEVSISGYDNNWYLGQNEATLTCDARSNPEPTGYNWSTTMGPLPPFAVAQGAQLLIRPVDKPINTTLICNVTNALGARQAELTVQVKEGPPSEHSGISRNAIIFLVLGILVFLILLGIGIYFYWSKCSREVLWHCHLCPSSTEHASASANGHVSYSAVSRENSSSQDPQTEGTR

[4] = biological target: T2, PVR mutant G131V fused with EGFP, extracted membrane protein (human, UniProt P15151 21-417, G131V); assay: as above; settings: one partner purified
T2 construct: poliovirus receptor (PVR, CD155), human; Probably the full-length membrane protein; also called PVRG131V; source: membrane protein extracted, quantified by EGFP fluorescence
T2 sequence (looked up): T1 chain with G111V

[5] = biological target: T3, PVR mutant S72R fused with EGFP, extracted membrane protein (human, UniProt P15151 21-417, S72R); assay: as above; settings: one partner purified
T3 construct: poliovirus receptor (PVR, CD155), human; Probably the full-length membrane protein; also called PVRS72R; source: membrane protein extracted, quantified by EGFP fluorescence
T3 sequence (looked up): T1 chain with S52R

[6] = biological target: T4, PVR mutant S72W fused with EGFP, extracted membrane protein (human, UniProt P15151 21-417, S72W); assay: as above; settings: one partner purified
T4 construct: poliovirus receptor (PVR, CD155), human; Probably the full-length membrane protein; also called PVRS72W; source: membrane protein extracted, quantified by EGFP fluorescence
T4 sequence (looked up): T1 chain with S52W

[7] = biological target: T5, PVR mutant S132Q fused with EGFP, extracted membrane protein (human, UniProt P15151 21-417, S132Q); assay: as above; settings: one partner purified
T5 construct: poliovirus receptor (PVR, CD155), human; Probably the full-length membrane protein; also called PVRS132Q; source: membrane protein extracted, quantified by EGFP fluorescence
T5 sequence (looked up): T1 chain with S112Q

TIGIT (from UniProt Q495A1)
Kd (PVR (Homo sapiens) [1]): 3200 nM
Kd (nectin-2 (Homo sapiens)): 5800 nM

CD96 (from UniProt P40200)
Kd (PVR (Homo sapiens) [2]): 10200 nM

B1: TIGIT-His eukaryotic protein, Q495A1 22-244 (receptor)
chain: MMTGTIETTGNISAEKGGSIILQCHLSSTTAQVTQVNWEQQDQLLAICNADLGWHISPSFKDRVAPGPGLGLTLQSLTVNDTGEYFCIYHTYPDGTYTGRIFLEVLESSVAEHGARFQIP
modifications: here or on the partner: expressed in eukaryotic cells (glycosylated); His tag omitted; construct limits not given, so the mature extracellular domain (UniProt topology) is used by convention
Kd [3]: 1150 nM

B2: TIGIT-His eukaryotic protein (receptor)
chain: B1 chain
modifications: expressed in eukaryotic cells (glycosylated); His tag omitted; construct limits not given, so the mature extracellular domain (UniProt topology) is used by convention
Kd [4]: 16 nM
Kd [5]: 549 nM
Kd [6]: 328 nM
Kd [7]: 58 nM
